Assay: yeast display, Sf9 membrane polyspecificity reagent, FACS + sequencing; frameworks hold sequencing errors
Outline: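 Galactose-induced (36–48 hours) yeast carrying a synthetic nanobody display library were exposed to 10% biotinylated, detergent-solubilized Sf9 membrane reagent at 4 °C for 1 hour. FACS followed streptavidin microbead enrichment, using low and high (top ~1%) gates for expression (anti-HA) and reagent binding (streptavidin). Colony PCR, MiSeq 2 × 250 sequencing and CDR-length filtering followed. Labels for polyreactivity reflect the gate of origin.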

## QVQLVESGGGLVQAGGSLRLSCAASGITFGYYAMGWYRQAPGKERELVATITDGGGTKYADSVKGRFTISRDNAKNTVYLQINSLKPEDTAVYYCAAGLRHVYATEYDYWGQGTQVTVSS
  polyreactivity (PSR sort gate): low polyreactivity

## QVQLQESGGGLVQAGGSLRLSCAASGYISHAVEMCWYRQAPGKEHELVASISNGGSTNYADSVKGRFTISRDNAKNTVYLQMNSLKSEDTAVYYCAGWTGQVDIHYYWGQGTQVTVSS
  polyreactivity (PSR sort gate): low polyreactivity

## QVQLVESGGGLVQAGGSLRLSCAASGGIYRYYAMGWYRQAPGKERELVAAISTSGTDTYYADSVKGRFTISRDNAKNTVYVQMNSLIPEDTAVYYCAAELYRYGFYEPIYPYSYDYWGQGTQVTVSS
  polyreactivity (PSR sort gate): low polyreactivity

## QVQLVESGGGLVQAGGSLRLSCAASGRTFAYYAMGWYRPAPGKERELVATITRSGGITSYADSVKGRFTISRDNAKNTVYLQMSSLKPADTAVYYCNTGYSNRLHDYWGQGTQVTVSS
  polyreactivity (PSR sort gate): high polyreactivity

## QVQLVESGGGIVQAGGSLRLSCAASGFIFRYAMGWYRPAPGKERELVAAISSSGGSTNYADSVKGRFTISRDNAKNTVYLQMNILKPEDSAVYYCAADQYYGGSWWYDYWGQGTQVSVSS
  polyreactivity (PSR sort gate): high polyreactivity

## QVQLVESGGGLVQAGGSLRLSCAASGSISGVYAMGWYRQAAGKDRALVAASSGGSGRTYYADSVKGRFTISRDNAKNTVYLQMISLKPEDTAVYYCAKTVLYSSYRKYDYWGQGSQVTVSS
  polyreactivity (PSR sort gate): high polyreactivity

## QVQLVESGGGLVQAGGSLRLSCAACGSIFVRNTMGWDRQAPGKERELVASIDWSGGITSYADSVKGRFTISRDNAKNTVYLQMNIRKPEDTAVYFCNAVFLYPFNVPTMEYWGQGTQVTVSS
  polyreactivity (PSR sort gate): low polyreactivity

## QVQLVESGGGLVQAGGSLRLSCAASGSILSDNAMGWYRQAPGKERELVASIRSGDITKYADSVKGRFTFSRDNAKNTVYLQMNSLKPEDTAVYYCASAGRVLYTRKYYGWRYLNDYWGQGTQVTVSS
  polyreactivity (PSR sort gate): low polyreactivity

## QVQLVESGGGLVQAGGSLRLSCAASGLIFYLYAMGWYRQQPGKERELVARMSRGGSTNYADSVKGRFTISRDNAKNTVYLQLNSLKPEDTAVDYCAADWFVSLGEMYYWGQGTQGTVSS
  polyreactivity (PSR sort gate): low polyreactivity

## QVQLVESGGGLVQAGGSLRLSCAASGGTFSKYAMGWYRQAPGKEREFVAAITVSGGGTYYADSVKGRFTISRDNAKNTVYLQMNSLKPEDTAVYYCAADLAWTASDYWGQGTQVTVSS
  polyreactivity (PSR sort gate): low polyreactivity

## QVQLVESGGGLVQAGGSLRLSCAASASNYERYVMGWNRQAPGKERELVAAISRSGGTTYYADSVKGRFTISRDNAKNTVYLQMNSLKPEDTAVYYCAARVPHDSAGYDYWGQATQVTVSS
  polyreactivity (PSR sort gate): high polyreactivity

## QVQLVESGGGLVQAGGSLRLSCAASGSTFTRYAMGWNRQAPGKARELVAAINWSGTSTYYADSVKGRFTISRDNAMNTVYLQMNSLKPEATAVYYSNAYTVRSYRFDYWGQGTQVTVSS
  polyreactivity (PSR sort gate): high polyreactivity

## QVQLVESGGGVVQAGCSLRISCAASGIFRKYAMGWYRQAPGKERELVAAITWGGGRTYYADSVKGRFTISRDNAKNTVYFQMNSLKPEDTAVYYCAAAKTGRGRGTTGYGYCGQGTQVTVSS
  polyreactivity (PSR sort gate): high polyreactivity

## QVQLVESGGGLVQAGGSLRLSCAASGFILLDNAMGWYRQAPGKEREFVASINISGDRTFYADSVKGRFTISRDNAKNTDYLQMNSLKPEDTAVYYCNALPSEPMVYWGQGTQVTVSS
  polyreactivity (PSR sort gate): low polyreactivity

## QVQLVESGGGLVQAGGSLRLSCAASGYIFGYVMGWYRQAPGKERELVAAITYSSGNTYYADSVKGRFTISRDNAKNTVYLQMNSLKPEDTAVYYCAKQAYYKGRLAYGYWGQGTQVTVSS
  polyreactivity (PSR sort gate): high polyreactivity

## QVQLVESGGGLVQAGGSLRLSFAASGRIFKRNTKRWYRQAPGKETELVAAITYSGITYYADSVKGRFTISRDNAKNTFYLQMNSLKPEDTAVYYCDKVLYPIGSPRFEYWGQGTQVTVSS
  polyreactivity (PSR sort gate): low polyreactivity

## QVQLVESGGGLVQAGGSLRLSCAASGRIFRINDMGWYIQAPGKERELVAAITWSGGSTYYADSVKGRFTISRDNAKNPVYLPMNSLKPEDTAGYYCAADQAYFWGYYYWGQGTQVTVSS
  polyreactivity (PSR sort gate): low polyreactivity

## QVQLVESGGGLVQAGGSLRLSCAASGRILYSYTMGWYRPAPGKEREFVAAITRSGGGTYYADSVKGRFTISRDNAKNTVYLQMNSLKPEDTAVYYCAATRNPYRRSNYDYWGQGTQVTVSS
  polyreactivity (PSR sort gate): high polyreactivity

## QVQLVESGGGLVQAGGSLRLSCAASGLTFCRYVMGWYRQAPVKERELVAAITSGDSTNYADSVKGRFTISRDNAKNTVYLQTYSLITEVTAGYYCAADYWYRYYIGRNPWECITFDYWGQGTQVTVSS
  polyreactivity (PSR sort gate): low polyreactivity

## QVQLVESGGGLVQAGGSLRLSCAASGRTFRGYAMGWYRQAPGKERELVAAISWSGGSTYYADSVKGRFTISRDNAKNTVYLQMNSLKPEDTAVYYCNAVYRGVAYDYWGQGTQVTVSS
  polyreactivity (PSR sort gate): high polyreactivity

## QVQLVESGGGLVQAGGSLRLSCAASGITFWHNTMGWYRQAPGKERELVAAISWTGGRTYYADSVKGRFTISRDNAKNSVYLQMNSLKPEDTPVYYCAADFSWTPSGNYDSWGQGTQVTVSS
  polyreactivity (PSR sort gate): low polyreactivity

## QVQLVESGGGLVQAGGSLRLSCAASGLTFNFYAMGWYRQAPGKEREFVAAISRSGGSTHYADSVKGRFTISRDNAKYTVYLQMNSLKPEDTAVYYCAADGGRKNYDYWGQGTQVTVSS
  polyreactivity (PSR sort gate): high polyreactivity

## QVQLGESGGGLVQAGGSLRLSCAASGSIFIGNAMGWYRQAPGKERELVAAITGRGGRTYYADSVKGRFTISRDNAKNTVYLQMNSLKTEDTAVYYCNAVARQFLYGYWGEGTQVTVSS
  polyreactivity (PSR sort gate): high polyreactivity

## QVQLVESGGGLVQAGGSLRLSCAASGIILYGYAMGWYRQAPGKARELVAALTWSGGSTYYADSVKGRFTISRDNAKNTVYLQMNSLKPEDTAVYYCAVDVHTSADASLPQEYDYWGQGTQVTVSS
  polyreactivity (PSR sort gate): low polyreactivity

## QVHHVESGGGLVQAGGSRRLSSAASRIIIDTNAMGWSSQAPGKERELVASISTRGGSTYYADSVKGRFTISRDNAKNTVYLQMISLKPANTPVYYCNAVQTYSGGYEYWGQGTQVTVSS
  polyreactivity (PSR sort gate): high polyreactivity

## QVQLVESGGGLVQAGGSLRLSCAASGSTFGRYVMGWYRQAPGKERELVAAISKNAGSTYYADSVKGRFTISRDNAKNTVYLHMNSLKPEDTAVYYCAADWRTKGYDSLGQGTQVTVSS
  polyreactivity (PSR sort gate): high polyreactivity

## PVQLVESGGGLVQAGGSLRLSCAASGSTFKRYAMGWYRQAPGKERELVAAISSGGTTYYADSVTGRFTISRDNAKNTVYLQMISLKPEDSAVYDCIARKYGWDQRILIYDYWGQGTQVTVSS
  polyreactivity (PSR sort gate): high polyreactivity

## QVQLVESGGGLVQAGGSLRLSCAASGSIFLVNAMGWYRQAPGKERELVASITWRGGRTYYADSVKGRFTISRDNAKNTVYLEMNSLKPEDTAVYYCAARNYRTGERLRYDYWGQGTQVTVSS
  polyreactivity (PSR sort gate): low polyreactivity

## QVQLVESGGGLVQAGGSLRLSCAASGSIFGGYGMGWYRQAPGKERELVAAINSGSSTYYADSVKGRFTISRDNAKNTVYLQMNSLKPEDTAVYYCAARPYPHSAYEGDYWGRGTQVTVSS
  polyreactivity (PSR sort gate): low polyreactivity

## QVQLVESGGGLVQAGGSLRLSCAASGRTYSNAMGWYRQAPGKELEFVASISSGGRTKDADSVKGRFTISRDNAKNTVYLQMNSLKPEDTADYYCNTVPGRYRTFDYWGQGTKVTVSS
  polyreactivity (PSR sort gate): high polyreactivity

## QVQLVESGGGLVQAGGSLRLSCAASGSTFKYYVMGWYRQAPGKERELVAAITRSGSTNYADSVKGRFTISRDNAKNTVYLQMNSLKPEDTAVYYCAAERALSRYGYWGQGTQVTVSS
  polyreactivity (PSR sort gate): low polyreactivity

## QVQLVESGGGLVQAGGSLRLSCAASGRIFNGYTMGWYRQAPGKETEFVATISRSGGSTYYADSVKGRFTISRDHAKNTVYLQMNSLKPEDSAVYYCAKTYPAKWEYDYWGQGTQVTVSS
  polyreactivity (PSR sort gate): low polyreactivity

## QVQLQESGGGLVQAGGSLRLSCAASGTMSDRPGMGWYRQAPAKNAIVATIDRGTNTNYADSVKGRFTISRDNAKNTVSLQMNSLKPEDSAVYNCAAVGRYYFSLDYWGPGTQVTVSS
  polyreactivity (PSR sort gate): low polyreactivity

## QVQLVESGGGLVQAGGSLRLSCAASGGTFRAYAMGWYRQAPGKEREFVAAITWSGGRTYYADSVKGRFTISRDNANNTVYLQMNSLKPEDTEVYYCATDQGHYYHAEHDYWGQGTKVTVSS
  polyreactivity (PSR sort gate): low polyreactivity

## QDQLVESGGGLVQAGGSLRLSCAASGSIFVYNTMGWYRPAPRKESDLVAAISSSGGSTYYADSVKGRYTISRDNAKNTVYLQMNSLKPEDTAVYYCAAVNGYQYPPNYYNGYDYWGQGTQVTVSS
  polyreactivity (PSR sort gate): low polyreactivity

## QVQLVESGGGLVQAGGSLRLSCAASGFIYTYAMGSYRQAPGKERELVAAIRWIGTRTYYADSVKGRFTISRDNAKNTVYLQMNSLKPEDTADYYCAARYYTYDGYSKYDYWGQGTQVNVSS
  polyreactivity (PSR sort gate): high polyreactivity

## QVQLVESGGGLVQAGGSLRLSCAASGSIFVGYAMGWYRQAPGKERELVASINYSGGTTDYADSVKGRFTISRDNAKNTVYLQMNSLKPEDTAVYYCAKTAVDWSFTKGVDYDYWGQGTQVTVSS
  polyreactivity (PSR sort gate): low polyreactivity

## QVQLVESGGGLVQAGGSLRLSCAASGRTFVGNAMGWYRQAPGKERELVATITGSGGRTYYADSVKGRFTISRDNAKNTVYLQMNSLKPEDTAVYYCAAKRSRYRYDYWGQGTQVTVSS
  polyreactivity (PSR sort gate): high polyreactivity

## QVQLVESGGGLVQAGGSLRLSCAASGGTFSRNVMGWYRQAPGTERELVAAISFSGGTTYYADSVKGRFTISRDNAKNTVYLQMISLKPEDTAVYYCAARPVNTVRPFDYWGQGTQVTVSS
  polyreactivity (PSR sort gate): high polyreactivity

## QVQLVESGGGLVQAGGSLRLSCAASGSTFGGNAMGWYRQAPGKERELVASISDGGRTNYADSVKGRFTISRDNAKNTVYLQMNSLKPEDTAVYYCAADYAPVAFDYWGQGTQVTVSS
  polyreactivity (PSR sort gate): low polyreactivity

## QDQLVESGGGLVQAGGSLRLSCAASGFISRKNAMGWSRQAPGKERELVATITKSGDTTYYADSVKGRFTISRDNAKNTVYLQMNSLKPEDTAVYYCAAPLYYIGSWDYYVRYIYDYWGQGTQVTVSS
  polyreactivity (PSR sort gate): low polyreactivity

## QVQLVESGGDLVQAGGSLRLSCAASGRTFSANGMGWYRQAPGKERELVAAITRSGGITYYADSVKGRFTISRDNAKNTVYLQMNSLKPEDTAVYYCAASVYSLSRRSWMDYWGQGTQVTVSS
  polyreactivity (PSR sort gate): low polyreactivity

## QVQLVESGGGLVQAGGSLRLSCAASGSTYRGYAMGWYRQAPGKEMELVAAISNRGTRTYYADSVKGRFTISRYNAKNTFYLQMNSLKPEDTAVYYFSAGNRVHRFDYWGQGTQVTVSS
  polyreactivity (PSR sort gate): high polyreactivity
